Experimental findings from paper PMC5454391, “Improving 10-deacetylbaccatin III-10-β-O-acetyltransferase catalytic fitness for Taxol production” (Nature Communications, 2017) are described below.

Where a chain is given by its changes, count along the chain named. Numbers in names are those of the source.

Sequences and labels used below:
B1: DBAT (recombinant DBAT of T. cuspidata) (Taxus cuspidata) (protein)
chain: MAGSTEFVVRSLERVMVAPSQPSPKAFLQLSTLDNLPGVRENIFNTLLVYNASDRVSVDPAKVIRQALSKVLVYYSPFAGRLRKKENGDLEVECTGEGALFVEAMADTDLSVLGDLDDYSPSLEQLLFCLPPDTDIEDIHPLVVQVTRFTCGGFVVGVSFCHGICDGLGAGQFLIAMGEMARGEIKPSSEPIWKRELLKPEDPLYRFQYYHFQLICPPSTFGKIVQGSLVITSETINCIKQCLREESKEFCSAFEVVSALAWIARTRALQIPHSENVKLIFAMDMRKLFNPPLSKGYYGNFVGTVCAMDNVKDLLSGSLLRVVRIIKKAKVSLNEHFTSTIVTPRSGSDESINYENIVGFGDRRRLGFDEVDFGWGHADNVSLVQHGLKDVSVVQSYFLFIRPPKNNPDGIKILSFMPPSIVKSFKFEMETMTNKYVTKP
B2: DBAT (recombinant DBAT of T. cuspidata) (Taxus cuspidata; G38R) (protein)
chain: B1 chain with G38R
B3: DBAT (recombinant DBAT of T. cuspidata) (Taxus cuspidata; F301V/G38R) (protein)
chain: B1 chain with G38R, F301V
B4: DBAT (recombinant DBAT of T. cuspidata) (Taxus cuspidata; F301V) (protein)
chain: B1 chain with F301V

Substrate in this data set: [H][C@]12[C@H](OC(=O)c3ccccc3)[C@]3(O)C[C@H](OC(=O)[C@H](O)[C@@H](NC(=O)c4ccccc4)c4ccccc4)C(C)=C([C@@H](O)C(=O)[C@]1(C)[C@@H](O)C[C@@]1([H])OC[C@@]21OC(C)=O)C3(C)C
As to the kind of experiment: purified protein. The note with it: acetyl-CoA 2,000 μM (saturating), 50 mM sodium acetate pH 5.5, 37.5 °C, 180 min.
One may read the Vmax as the top rate of the reaction or transport when substrate is in excess. One may read the kcat as the maximal rate divided by the concentration of active sites. In general, kcat/Km refers to the second-order rate constant that governs catalysis at low substrate concentration. With B1, the Km is on record as 0.546 (±0.029) mM, the maximum rate (Vmax) amounted to 0.204 µM/min, the catalytic constant (kcat) was determined as 0.000334 s⁻¹ and the kcat/Km turned out to be 0.611 M⁻¹ s⁻¹.
Take B2: the Km is on record as 0.368 (±0.061) mM, the maximum rate (Vmax) worked out at 0.499 µM/min, the kcat was 0.000815 s⁻¹ and the kcat/Km was 2.22 M⁻¹ s⁻¹.
For B3 the same measures were 0.424 (±0.133) mM, 0.918 µM/min, 0.0015 s⁻¹ and 3.54 M⁻¹ s⁻¹.
For B4 the same measures were 0.178 (±0.017) mM, 0.242 µM/min, 0.000396 s⁻¹ and 2.22 M⁻¹ s⁻¹.
